{
  "source": "patent US20020151682A1",
  "about": "(UCB, published 2002)",
  "binders": {"B1": {"name": "mouse monoclonal antibody hTNF40 (antibody, IgG2a, V domains shown)", "VH": "QIQLVQSGPELKKPGETVKISCKASGYVFTDYGMNWVKQAPGKAFKWMGWINTYIGEPIYVDDFKGRFAFSLETSASTAFLQINNLKNEDTATYFCARGYRSYAMDYWGQGTSVTVSS", "VL": "DIVMTQSQKFMSTSVGDRVSVTCKASQNVGTNVAWYQQKPGQSPKALIYSASFLYSGVPYRFTGSGSGTDFTLTISTVQSEDLAEYFCQQYNIYPLTFGAGTKLELKR", "notes": "The light chain constant region is kappa and the heavy chain constant region is IgG2a (mouse); also called murine hTNF40; the donor antibody"}},
  "target": "T1, human tumour necrosis factor alpha (TNFα) (human, UniProt P01375 77-233)",
  "T1 construct": "also called human TNF; recombinant human TNFα",
  "T1 sequence (P01375 77-233 limits assumed)": "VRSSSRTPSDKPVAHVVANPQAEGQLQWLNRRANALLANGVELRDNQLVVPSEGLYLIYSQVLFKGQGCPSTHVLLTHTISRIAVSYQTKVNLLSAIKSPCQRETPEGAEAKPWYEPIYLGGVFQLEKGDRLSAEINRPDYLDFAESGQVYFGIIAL",
  "assay": "affinity; method not named at the sentence (BiaCore with captured hTNF40 and human TNF in flow is described at paragraph 169)",
  "source_text": "Following the injection of ligand, buffer was passed over the surface so that the dissociation could be measured.",
  "data": [
    {"binder": "B1", "values": [
      {"measurement": "Kd", "value": "~0.085", "unit": "nM"}
    ]}
  ]
}
